Test results as given in patent US9987241B2, “Enzyme conjugate and prodrug cancer therapy” (The Board of Regents of the University of Oklahoma, priority 2014, dated 2018).

B1: mCGL-AV: fusion protein of mouse cystathione-γ-lyase mutant with three mutations (SEQ ID NO:3) and annexin V; post-cleavage SEQ ID NO:10 (protein)
chain: MHHHHHHSSGLVPRGSGMKETAAAKFERQHMDSPDLGTDDDDKMLEVLFQGPMQKDASLSGFLPSFQHFATQAIHVGQEPEQWNSRAVVLPISLATTFKQDFPGQSSGFNYSRSGNPTRNCLEKAVAALDGAKHSLAFASGLAATITITHLLKAGDEIICMDEVYGGTNLYFRRVASEFGLKISFVDCSKTKLLEAAITPQTKLVWIETPTNPTLKLADIGACAQIVHKRGDIILVVDNTFMSAYFQRPLALGADICMCSATKYMNGHSDVVMGLVSVNSDDLNSRLRFLQNSLGAVPSPFDCYLCCRGLKTLQVRMEKHFKNGMAVARFLETNPRVEKVVYPGLPSHPQHELAKRQCSGCPGMVSFYIKGALQHAKAFLKNLKLFTLAVSLGGYESLAELPAIMTHASVPEKDRATLGINDTLIRLSVGLEDEQDLLEDLDRALKAAHPSGGGGSGGGGMATRGTVTDFPGFDGRADAEVLRKAMKGLGTDEDSILNLLTSRSNAQRQEIAQEFKTLFGRDLVDDLKSELTGKFEKLIVAMMKPSRLYDAYELKHALKGAGTDEKVLTEIIASRTPEELSAIKQVYEEEYGSNLEDDVVGDTSGYYQRMLVVLLQANRDPDTAIDDAQVELDAQALFQAGELKWGTDEEKFITIFGTRSVSHLRRVFDKYMTISGFQIEETIDRETSGNLEQLLLAVVKSIRSIPAYLAETLYYAMKGAGTDDHTLIRVVVSRSEIDLFNIRKEFRKNFATSLYSMIKGDTSGDYKKALLLLCGGEDD
modifications: pre-cleavage amino acid sequence of the mCGL-AV fusion protein
B2: mCGL-AI: fusion protein of mouse cystathione-γ-lyase mutant with three mutations (SEQ ID NO:3) and annexin I; post-cleavage SEQ ID NO:11 (protein)
chain: MHHHHHHSSGLVPRGSGMKETAAAKFERQHMDSPDLGTDDDDKMLEVLFQGPMQKDASLSGFLPSFQHFATQAIHVGQEPEQWNSRAVVLPISLATTFKQDFPGQSSGFNYSRSGNPTRNCLEKAVAALDGAKHSLAFASGLAATITITHLLKAGDEIICMDEVYGGTNLYFRRVASEFGLKISFVDCSKTKLLEAAITPQTKLVWIETPTNPTLKLADIGACAQIVHKRGDIILVVDNTFMSAYFQRPLALGADICMCSATKYMNGHSDVVMGLVSVNSDDLNSRLRFLQNSLGAVPSPFDCYLCCRGLKTLQVRMEKHFKNGMAVARFLETNPRVEKVVYPGLPSHPQHELAKRQCSGCPGMVSFYIKGALQHAKAFLKNLKLFTLAVSLGGYESLAELPAIMTHASVPEKDRATLGINDTLIRLSVGLEDEQDLLEDLDRALKAAHPSGGGGSGGGGMAMVSEFLKQARFLENQEQEYVQAVKSYKGGPGSAVSPYPSFNVSSDVAALHKAIMVKGVDEATIIDILTKRTNAQRQQIKAAYLQENGKPLDEVLRKALTGHLEEVVLAMLKTPAQFDADELRGAMKGLGTDEDTLIEILTTRSNEQIREINRVYREELKRDLAKDITSDTSGDFRKALLALAKGDRCQDLSVNQDLADTDARALYEAGERRKGTDVNVFTTILTSRSFPHLRRVFQNYGKYSQHDMNKALDLELKGDIEKCLTTIVKCATSTPAFFAEKLYEAMKGAGTRHKALIRIMVSRSEIDMNEIKVFYQKKYGISLCQAILDETKGDYEKILVALCGGN
modifications: pre-cleavage amino acid sequence of the mCGL-AI fusion protein

Assays:
[1] = system: 4T1 tumors; test: Combination therapy on 4T1 tumors implanted orthotopically: tumor volume and survival; assay type: in vivo; settings: BALB/cJ mice with orthotopic 4T1 tumors; protocols of FIGS. 8 and 9; treatment day 10 to 30
Experimental: Selenomethionine (5 mg/kg IP) was administered 10 h post fusion protein administration. Rapamycin (5 mg/kg IP) and cyclophosphamide (10 mg/kg IP) were administered daily. Treatment began on day 10 and continued until day 30 as indicated by the arrow. Statistical significance vs. untreated is indicated by * (p<0.001).

[2] = system: 4T1 lung metastasis; test: Lung metastasis nodules in 4T1-TdTomato model; assay type: in vivo, BALB/c mouse; settings: after 3 weeks of treatment
From the text: A Leica stereomicroscope with an automated ImageJ macro was used to quantify fluorescent nodules in the lung. […] Median nodule size on the log scale is marked. Total nodules per group (n=3 mice) is summed and shown.

[3] = system: CD4+ CD25+ FoxP3+ regulatory T cell; settings: comparing mCGL-AV & Sel groups with and without Cyc, after 3 weeks of treatment
From the text: CD4+ CD25+ FoxP3+ regulatory T cell levels were quantified with flow cytometry and are presented as a percentage of spleen lymphocytes in BALB/c mice with 4T1 grafts after 3 weeks of treatment or healthy BALB/c mice with no tumor. Data is mean±SE (n=3 mice).

[4] = system: hypoxia-inducible factor-1 alpha (HIF-1-α); test: Immunohistochemistry staining of HIF-1-α in tumor sections; assay type: in vivo, BALB/c mice; settings: after 3 weeks of treatment
From the text: Immunohistochemistry staining of HIF-1-α with DAB development was quantified from whole section images of mice sacrificed after 3 weeks of treatment. Data is presented as mean±SE (n=3 mice). Statistical significance between groups is indicated by +(p<0.01) or * (p<0.001).

[5] = system: human MDA-MB-231 breast tumors; test: Dissociation constants of fusion proteins on MDA-MB-231 cells grown in vitro; assay type: binding; settings: for Kd: MDA-MB-231 cells in vitro, ± SE (n = 3), read-out: Dissociation Constant (Kd) MDA-MB-231
[6] = system: human HAAE-1 endothelial cells; test: Dissociation constants of fusion proteins on HAAE-1 cells grown in vitro; assay type: binding; settings: for Kd: HAAE-1 cells in vitro, ± SE (n = 3), read-out: Dissociation Constant (Kd) HAAE-1
[7] = L-methioninase enzyme activity of fusion proteins; assay type: biochemical; settings: for L-methioninase enzyme activity compared with Met-AV: versus Met-AV fusion protein
[8] = Fusion protein specific IgG + IgM titers after daily IP administration; assay type: in vivo; settings: BALB/c mice
[9] = In vivo mCGL-AV plasma clearance (ELISA on serum); design: species or system mice; settings: 10 mg/kg intraperitoneal
Experimental: An ELISA assay for mCGL-AV was performed on serum samples at intervals following intraperitoneal administration of mCGL-AV at 10 mg/kg. Data is presented as mean±SE (n=3).
Clearance of the mCGL-AV protein from the circulation of BALB/cJ mice occurred with pharmacokinetics similar to the other enzyme prodrug systems in SCID mice.

[10] = system: mouse 4T1 breast tumors; test: AV- and AI-targeted mCGL enzyme prodrug therapy on orthotopic 4T1 tumors; assay type: in vivo; settings: BALB/c mice; fusion protein 10 mg/kg IP daily with selenomethionine 5 mg/kg IP
Experimental: FIG. 6 is a comparison of efficacy of AV- and AI-targeted mCGL enzyme prodrug therapy with selenomethionine on 4T1 tumors implanted orthotopically in BALB/c mice. mCGL-AV and mCGL-AI were administered daily (10 mg/kg IP). Selenomethionine (5 mg/kg IP) was administered 10 h post fusion protein administration. Treatment began on day 11 and continued until day 18 as indicated by the arrow. Statistical significance vs. untreated is indicated by * (p<0.001). No significant difference was observed between treatment groups. […] Data is presented as mean volume±SE (n=6).

Molecule	Median Survival [1] [days]	Kd [5] [nM]	Binding to MDA-MB-231 tumor cells in vitro [5]	Kd [6] [nM]	Binding to HAAE-1 human endothelial cells in vitro [6]	L-methioninase enzyme activity [7] [U/mg]	L-methioninase enzyme activity compared with Met-AV [7]	Negative effects of treatment [10]	other results
O=P1(N(CCCl)CCCl)NCCCO1 (stereo not shown) [Cyc, cyclophosphamide]	23	–	–	–	–	–	–	–	Lung metastatic nodules, number and size [2]: reduced numbers of metastases; Regulatory T cell levels in spleen [3]: mild reduction in regulatory T cell levels; HIF-1-α expression in tumor sections [4]: drastic reduction of HIF-1-α expression
CO[C@H]1C[C@@H]2CC[C@@H](C)[C@@](O)(O2)C(=O)C(=O)N2CCCC[C@H]2C(=O)O[C@H]([C@H](C)C[C@@H]2CC[C@@H](O)[C@H](OC)C2)CC(=O)[C@H](C)/C=C(\C)[C@@H](O)[C@@H](OC)C(=O)[C@H](C)C[C@H](C)/C=C/C=C/C=C/1C [Rap, rapamycin]	14	–	–	–	–	–	–	–	–
C[Se]CC[C@H](N)C(=O)O [Sel, selenomethionine]	18	–	–	–	–	–	–	–	–
B1	18	2.5	bound strongly	0.11	bound strongly	1.3	substantially equivalent	No negative effects were observed	Fusion protein specific IgG + IgM titer, Day 0 ([8]; daily 10 mg/kg IP, Day 0): Not detected; Fusion protein specific IgG + IgM titer, Day 7 ([8]; daily 10 mg/kg IP, Day 7): Not Detected; Fusion protein specific IgG + IgM titer, Day 14 ([8]; daily 10 mg/kg IP, Day 14): Not Detected; Fusion protein specific IgG + IgM titer, Day 21 ([8]; daily 10 mg/kg IP, Day 21): Not Detected; Immunogenicity: IgG+IgM antibody titers in the bloodstream ([8]; daily intraperitoneal administration, 21 day period): did not produce detectable IgG+IgM antibody titers; Time to complete clearance from the circulation ([9]; BALB/cJ mice): ≤ 10 h; Clearance from the circulation (time) ([9]; SCID mice, ELISA on serum): < 10 h
B2	–	0.68	bound strongly	2.3	bound strongly	1.0	substantially equivalent	No negative effects were observed	–
